Patent US20240116985A1 (published 2024)
Starred links: 1 amine or outer side, 2 acyl side, 3 side chain; linkers in the order of their positions; H or OH if unused. Positions of bridges follow the written chain, without caps; N, C: chain ends. Non-standard residues stand in square brackets, D forms with d. Primed or numbered codes have the meaning given here. B5(10) = 2-amino-2-(pent-4-en-1-yl)hept-6-enoic acid, bis(4-pentenyl)glycine, stitching residue bearing both staples, C=CCCCC(CCCC=C)(N[*:1])C(=O)[*:2]; PyrS2″ = (S)-3-amino-1-((pent-4-en-1-yloxy)carbonyl)pyrrolidine-3-carboxylic acid (stapling residue), C=CCCCOC(=O)N1CC[C@@](N[*:1])(C(=O)[*:2])C1; B5(4) = 2,2-bis(4-pentenyl)glycine = 2-amino-2-(pent-4-en-1-yl)hept-6-enoic acid (stitching residue), C=CCCCC(CCCC=C)(N[*:1])C(=O)[*:2]; B5(5) = 2,2-bis(4-pentenyl)glycine, 2-amino-2-(pent-4-en-1-yl)hept-6-enoic acid (stitching residue), C=CCCCC(CCCC=C)(N[*:1])C(=O)[*:2]; B5(21) = 2-amino-2-(pent-4-en-1-yl)hept-6-enoic acid, bis(4-pentenyl)glycine (stitching residue), C=CCCCC(CCCC=C)(N[*:1])C(=O)[*:2]; (EtSSpy)AspE = (S)-2-amino-4-oxo-4-(2-(pyridin-2-yldisulfaneyl)ethoxy)butanoic acid, O=C(C[C@H](N[*:1])C(=O)[*:2])OCCSSc1ccccn1; PyrS2 = (S)-3-amino-1-((pent-4-en-1-yloxy)carbonyl)pyrrolidine-3-carboxylic acid, C=CCCCOC(=O)N1CC[C@@](N[*:1])(C(=O)[*:2])C1; SeN = (S)-5-(((allyloxy)carbonyl)(methyl)amino)-2-amino-2-methylpentanoic acid, C=CCOC(=O)N(C)CCC[C@](C)(N[*:1])C(=O)[*:2]; Qui = (S)-2-amino-3-(quinolin-2-yl)propanoic acid, O=C([C@H](Cc1ccc2ccccc2n1)N[*:1])[*:2]; AspSH = (S)-2-amino-4-mercapto-4-oxobutanoic acid, O=C(C[C@H](N[*:1])C(=O)[*:2])S[*:3]; B5 = 2-amino-2-(pent-4-en-1-yl)hept-6-enoic acid, C=CCCCC(CCCC=C)(N[*:1])C(=O)[*:2]; B5(28) = 2,2-bis(4-pentenyl)glycine, C=CCCCC(CCCC=C)(N[*:1])C(=O)[*:2]; S7 = C[C@@](CCCCCC=[*:3])(N[*:1])C(=O)[*:2]; Phe(2-Cl) = N[C@@H](Cc1ccccc1Cl)C(=O)O; 2Nal = N[C@@H](Cc1ccc2ccccc2c1)C(=O)O; Bta = N[C@@H](Cc1csc2ccccc12)C(=O)O; Lys(iPr) = CC(C)NCCCC[C@H](N)C(=O)O; αAllylPro = C=CC[C@@]1(C(=O)O)CCCN1; tBuAla = CC(C)(C)C[C@H](N)C(=O)O; Aad = N[C@@H](CCCC(=O)O)C(=O)O; S8 = C=CCCCCCC[C@](C)(N)C(=O)O; Aib = CC(C)(N)C(=O)O

T1: B-cat-Halo (UniProt P35222 1-781)
T1 sequence (looked up): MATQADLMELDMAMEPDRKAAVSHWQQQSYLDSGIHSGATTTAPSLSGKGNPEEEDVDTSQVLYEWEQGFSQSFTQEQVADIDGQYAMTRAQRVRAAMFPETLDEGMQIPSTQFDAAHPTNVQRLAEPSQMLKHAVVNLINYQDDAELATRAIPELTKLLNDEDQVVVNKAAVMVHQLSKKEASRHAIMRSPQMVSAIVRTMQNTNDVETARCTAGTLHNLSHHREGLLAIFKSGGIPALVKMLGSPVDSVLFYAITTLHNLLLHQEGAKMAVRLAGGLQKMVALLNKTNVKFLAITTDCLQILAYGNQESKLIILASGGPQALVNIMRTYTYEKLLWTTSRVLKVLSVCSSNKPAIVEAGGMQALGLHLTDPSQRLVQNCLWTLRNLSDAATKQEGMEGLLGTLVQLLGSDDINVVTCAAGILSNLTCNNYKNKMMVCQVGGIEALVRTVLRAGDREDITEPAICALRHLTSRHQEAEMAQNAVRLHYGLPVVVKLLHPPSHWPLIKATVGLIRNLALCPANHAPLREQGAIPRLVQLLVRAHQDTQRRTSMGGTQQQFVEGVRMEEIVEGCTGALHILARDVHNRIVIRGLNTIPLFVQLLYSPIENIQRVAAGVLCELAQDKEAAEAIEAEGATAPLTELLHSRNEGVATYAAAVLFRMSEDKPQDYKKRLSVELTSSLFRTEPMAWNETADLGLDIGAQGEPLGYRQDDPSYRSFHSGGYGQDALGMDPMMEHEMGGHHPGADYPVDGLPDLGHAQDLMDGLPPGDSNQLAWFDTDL

T2: B-cat-Halo (beta-catenin HaloTag fusion expressed in HEK293 cells) (UniProt P35222 1-781)
T2 sequence (looked up): T1 sequence (looked up)

T3: beta-catenin (full-length, Uniprot ID P35222) (Homo sapiens (Human), UniProt P35222 2-781)
T3 construct: The FP protocol says 'full-length beta-Catenin (Uniprot ID P35222)'; also called bCat; B-Catenin
T3 sequence: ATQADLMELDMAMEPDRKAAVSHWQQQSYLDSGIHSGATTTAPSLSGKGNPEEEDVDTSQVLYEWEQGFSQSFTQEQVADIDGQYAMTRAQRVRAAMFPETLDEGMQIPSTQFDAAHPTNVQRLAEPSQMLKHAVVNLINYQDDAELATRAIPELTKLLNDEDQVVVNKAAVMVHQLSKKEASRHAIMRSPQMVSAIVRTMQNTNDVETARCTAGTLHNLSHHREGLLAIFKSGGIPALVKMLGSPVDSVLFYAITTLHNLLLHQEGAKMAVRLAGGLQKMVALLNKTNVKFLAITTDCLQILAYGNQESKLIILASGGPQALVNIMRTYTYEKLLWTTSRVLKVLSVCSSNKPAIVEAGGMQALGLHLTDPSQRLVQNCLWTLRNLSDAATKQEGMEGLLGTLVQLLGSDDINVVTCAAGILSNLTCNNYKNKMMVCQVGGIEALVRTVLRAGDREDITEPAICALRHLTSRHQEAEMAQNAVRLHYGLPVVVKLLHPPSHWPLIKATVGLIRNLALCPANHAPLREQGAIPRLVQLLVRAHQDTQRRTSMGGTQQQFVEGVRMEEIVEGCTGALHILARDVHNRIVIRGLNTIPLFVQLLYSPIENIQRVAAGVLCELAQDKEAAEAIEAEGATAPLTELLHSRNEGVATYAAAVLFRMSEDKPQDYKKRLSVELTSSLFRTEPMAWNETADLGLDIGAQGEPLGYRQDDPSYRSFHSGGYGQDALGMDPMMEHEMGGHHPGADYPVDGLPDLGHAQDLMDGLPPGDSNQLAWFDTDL

B1: I-1276 (peptide)
peptide: Ac-[αAllylPro]D[tBuAla][B5(5)]DD[Lys(iPr)]AFL[PyrS2″][Phe(2-Cl)][Bta]T-NH2
modifications: staple 1-4; staple 4-11 (inferred); not fully specified; printed as Ac-PL3-Asp-Npg-B5-Asp-Asp-iPrLys-Ala-Phe-Leu-PyrS2-2C1F-BztA-Thr-NH2
B2: I-1278 (peptide)
peptide: Ac-[αAllylPro]D[tBuAla][B5(5)]DDAAF[Lys(iPr)][PyrS2][Phe(2-Cl)][Bta]Q-NH2
modifications: staple 1-4, 4-11; not fully specified; printed as Ac-PL3-Asp-Npg-B5-Asp-Asp-Ala-Ala-Phe-iPrLys-PyrS2-2C1F-BztA-Gln-NH2
B3: I-1279 (peptide)
peptide: Ac-[αAllylPro]D[tBuAla][B5(10)]DDAAF[Lys(iPr)][PyrS2][Phe(2-Cl)][Bta]T-NH2
modifications: staple 1-4, 4-11
B4: I-1275 (peptide)
peptide: Ac-[αAllylPro]D[tBuAla][B5(5)]DD[Lys(iPr)]AFL[PyrS2″][Phe(2-Cl)][Bta]Q-NH2
modifications: staple 1-4; staple 4-11 (inferred); not fully specified; printed as Ac-PL3-Asp-Npg-B5-Asp-Asp-iPrLys-Ala-Phe-Leu-PyrS2-2C1F-BztA-Gln-NH2
B5: I-1277 (peptide)
peptide: Ac-[αAllylPro]D[tBuAla][B5(5)]DD[Lys(iPr)]AFL[PyrS2][Phe(2-Cl)][Bta]L-NH2
modifications: staple 1-4, 4-11; not fully specified; printed as Ac-PL3-Asp-Npg-B5-Asp-Asp-iPrLys-Ala-Phe-Leu-PyrS2-2C1F-BztA-Leu-NH2
B6: I-1280 (peptide)
peptide: Ac-[αAllylPro]D[tBuAla][B5(10)]DDAAF[Lys(iPr)][PyrS2][Phe(2-Cl)][Bta]L-NH2
modifications: staple 1-4, 4-11
B7: I-1274 (peptide)
peptide: Ac-[αAllylPro]D[tBuAla][B5(5)]DD[Lys(iPr)]AFT[PyrS2″][Phe(2-Cl)][Bta]L-NH2
modifications: staple 1-4; staple 4-11 (inferred); not fully specified; printed as Ac-PL3-Asp-Npg-B5-Asp-Asp-iPrLys-Ala-Phe-Thr-PyrS2-2C1F-BztA-Leu-NH2
B8: I-1724 (peptide)
peptide: Ac-[αAllylPro][(EtSSpy)AspE][tBuAla][B5]DDAAFN[PyrS2][Phe(2-Cl)][Bta]Q-NH2
modifications: staple 1-4, 4-11; not fully specified
B9: I-1722 (peptide)
peptide: Ac-[αAllylPro][AspSH][tBuAla][B5]DDAAFN[PyrS2][Phe(2-Cl)][Bta]Q-NH2
modifications: staple 1-4, 4-11; not fully specified
B10: I-129: Ac-PL3-Asp-Ala-B5-Asp-Aad-Ala-Ala-Phe-Val-S8-Phe-Trp-Gln-NH2 (peptide)
peptide: Ac-[αAllylPro]DA[B5(10)]D[Aad]AAFV[S8]FWQ-NH2
modifications: staple 1-4, 4-11
notes: Stapled peptide
B11: I-132: Ac-PL3-Asp-Ala-B5-Asp-Glu-Ala-Ala-Phe-Val-S7-Phe-Trp-Gln-NH2 (peptide)
peptide: Ac-[αAllylPro]DA[B5]DEAAFV[S7]FWQ-NH2
modifications: staple 1-4, 4-11
notes: Stapled peptide
B12: I-131: Ac-PL3-Asp-Ala-B5-Asp-Glu-Ala-Ala-Phe-Val-SeN-Phe-Trp-Gln-NH2 (peptide)
peptide: Ac-[αAllylPro]DA[B5(4)]DEAAFV[SeN]FWQ-NH2
modifications: staple 1-4, 4-11
notes: Stapled peptide
B13: I-143: Ac-PL3-Asp-Ala-B5-Asp-Glu-Ala-Ala-Phe-Val-S8-Phe-Qui-Gln-NH2 (peptide)
peptide: Ac-[αAllylPro]DA[B5(4)]DEAAFV[S8]F[Qui]Q-NH2
modifications: staple 1-4, 4-11
notes: Stapled peptide
B14: I-140: Ac-PL3-Asp-Ala-B5-Asp-Glu-Ala-Ala-Phe-Val-S8-Phe-2NapA-Gln-NH2 (peptide)
peptide: Ac-[αAllylPro]DA[B5(21)]DEAAFV[S8]F[2Nal]Q-NH2
modifications: staple 1-4, 4-11
notes: Stapled peptide
B15: I-134: Ac-PL3-Asp-Ala-B5-Asp-Glu-Ala-Ala-Phe-Val-S8-Phe-Trp-Aib-NH2 (peptide)
peptide: Ac-[αAllylPro]DA[B5(28)]DEAAFV[S8]FW[Aib]-NH2
modifications: staple 1-4, 4-11
notes: Stapled peptide

Molecular target: T1, B-cat-Halo
Assay: cell-based or functional assay

Row | NanoBRET Abs IC50 [µM] | Binder
1 | > 20 | B1
2 | 18 | B2
3 | 22.9 | B3
4 | 27.8 | B4
5 | > 20 | B5
6 | 24.7 | B6
7 | > 20 | B7

Molecular target: T2, B-cat-Halo (beta-catenin HaloTag fusion …)
Assay: cell-based or functional assay

Row | NanoBRET Abs IC50 [µM] | Binder
8 | 29.7 | B8
9 | > 20 | B9

Molecular target: T3, beta-catenin (full-length, Uniprot ID …)
Assay: fluorescence polarization competition vs 5FAM-TCF4(10-53) on full-length beta-catenin
Experimental: The plate was incubated protected from light for 60 minutes at 20° C. prior to read. Reads were performed on a CLARIOstar plate reader (BMG Labtech) in duplicate, and data were fitted to a 1:1 binding model with hill slope using an in-house script. All provided concentrations are final concentrations.

Row | IC50 [µM] | Binder
10 | 1.98 | B10
11 | 5 | B11
12 | 2.16 | B12
13 | 2.27 | B13
14 | 2.27 | B14
15 | 2.7 | B15
